The values below come from article PMC12483203.

The test concerns the target Hu-1 G614 S-6P homotrimer (SARS-CoV-2 Wuhan-Hu-1 D614G spike ectodomain, hexaproline-stabilised) (SARS-CoV-2) (UniProt P0DTC2). The test can be described thus: SEC.

In the case of “Hu-1 G614 S-6P homotrimer (SARS-CoV-2 Wuhan-Hu-1 D614G spike ectodomain, hexaproline-stabilised) (from UniProt P0DTC2 14-1211) (natural protein)”, the stoichiometry N (in general, the number of molecules, sites or subunits per partner or assembly) was 3.
